Tests used:
[1] = biological target: human B7-H4 on cells (human) (UniProt Q7Z7D3); test: flow cytometry, AF647-labelled antibody at 78 ng/ml, SKBR-3 cells
[2] = biological target: human B7-H4 on cells (human) (UniProt Q7Z7D3); test: flow cytometry, AF647-labelled antibody at 312 ng/ml, SKBR-3 cells

Chain of human B7-H4 on cells (human) (Q7Z7D3 25-282 limits assumed): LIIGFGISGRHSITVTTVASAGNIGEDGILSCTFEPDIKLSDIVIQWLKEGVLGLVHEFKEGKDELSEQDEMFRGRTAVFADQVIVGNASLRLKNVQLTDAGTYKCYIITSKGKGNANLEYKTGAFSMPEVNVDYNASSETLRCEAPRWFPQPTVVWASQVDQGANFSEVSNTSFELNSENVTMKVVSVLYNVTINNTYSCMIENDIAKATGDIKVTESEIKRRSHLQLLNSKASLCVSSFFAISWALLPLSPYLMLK

Geometric Mean : Comp-APC-A [1]: 101
Geometric Mean : Comp-APC-A [2]: 121
Substance: R347-maia human IgG1 (isotype control) (antibody)
